Data on three molecules can be found in patent US20200078399A1 (LEGEND BIOTECH USA, published 2020).

Assay in all cases: cell-based or functional assay
In assay [1] the target is human BCMA (B cell mature antigen, CD269, TNFRSF17) on cells (human) (UniProt Q02223).
Assay [2] has as its target T1, human BCMA (B cell mature antigen, CD269, TNFRSF17) on cells (human, UniProt Q02223 1-184).
T1 sequence: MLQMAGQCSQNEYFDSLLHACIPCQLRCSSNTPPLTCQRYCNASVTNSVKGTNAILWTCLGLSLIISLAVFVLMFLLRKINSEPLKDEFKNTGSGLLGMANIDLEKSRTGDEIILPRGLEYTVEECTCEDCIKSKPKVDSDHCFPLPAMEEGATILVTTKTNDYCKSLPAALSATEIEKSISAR

Assay [3] has as its target T2, CD38 on K562.CD38.Luc cells (UniProt P28907 1-300, limits assumed).
T2 sequence (looked up): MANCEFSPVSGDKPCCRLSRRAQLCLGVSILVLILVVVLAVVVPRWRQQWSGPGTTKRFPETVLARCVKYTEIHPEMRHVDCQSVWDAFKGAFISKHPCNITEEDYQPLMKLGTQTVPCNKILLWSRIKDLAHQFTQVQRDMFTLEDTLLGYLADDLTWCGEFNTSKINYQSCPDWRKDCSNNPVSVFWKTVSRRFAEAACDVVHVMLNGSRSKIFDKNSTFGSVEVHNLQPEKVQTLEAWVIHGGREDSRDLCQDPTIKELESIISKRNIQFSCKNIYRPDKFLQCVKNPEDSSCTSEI

LCAR-B38M CAR: in assay [1], the percentage of remaining viable RPMI8226.Luc cells (remaining luciferase activity), CAR-T from patient A, E/T 5:1, 20 hours was found to be 33.4%; the percentage of remaining viable RPMI8226.Luc cells (remaining luciferase activity), CAR-T from patient A, E/T 20:1, 20 hours is 3.97%; the percentage of remaining viable RPMI8226.Luc cells (remaining luciferase activity), CAR-T from patient B, E/T 5:1, 20 hours was 40.9%; the percentage of remaining viable RPMI8226.Luc cells (remaining luciferase activity), CAR-T from patient B, E/T 20:1, 20 hours worked out at 4.45%. In addition, in assay [1], the percentage of remaining viable RPMI8226.Luc cells (remaining luciferase activity), CAR-T from patient C, E/T 5:1, 20 hours came to 30% and the percentage of remaining viable RPMI8226.Luc cells (remaining luciferase activity), CAR-T from patient C, E/T 20:1, 20 hours stood at 2.56%.

Consider LCAR-B27S CAR, for which, in assay [1], the percentage of remaining viable RPMI8226.Luc cells (remaining luciferase activity), CAR-T from patient A, E/T 5:1, 20 hours was 68.6%; the percentage of remaining viable RPMI8226.Luc cells (remaining luciferase activity), CAR-T from patient A, E/T 20:1, 20 hours amounted to 3.17%; the percentage of remaining viable RPMI8226.Luc cells (remaining luciferase activity), CAR-T from patient B, E/T 5:1, 20 hours turned out to be 84%; the percentage of remaining viable RPMI8226.Luc cells (remaining luciferase activity), CAR-T from patient B, E/T 20:1, 20 hours came out at 9.32%. In addition, in assay [1], the percentage of remaining viable RPMI8226.Luc cells (remaining luciferase activity), CAR-T from patient C, E/T 5:1, 20 hours was found to be 101% and the percentage of remaining viable RPMI8226.Luc cells (remaining luciferase activity), CAR-T from patient C, E/T 20:1, 20 hours worked out at 10.1%.

B1: BCAR001 (other)
chain: QVKLEESGGGLVQAGRSLRLSCAASEHTFSSHVMGWFRQAPGKERESVAVIGWRDISTSYADSVKGRFTISRDNAKKTLYLQMNSLKPEDTAVYYCAARRIDAADFDSWGQGTQVTVSSGGGGSAVQLVESGGGLVQAGDSLRLTCTASGRAFSTYFMAWFRQAPGKEREFVAGIAWSGGSTAYADSVKGRFTISRDNAKNTVYLQMNSLKSEDTAVYYCASRGIEVEEFGAWGQGTQVTVSSTSTTTPAPRPPTPAPTIASQPLSLRPEACRPAAGGAVHTRGLDFACDIYIWAPLAGTCGVLLLSLVITLYCKRGRKKLLYIFKQPFMRPVQTTQEEDGCSCRFPEEEEGGCELRVKFSRSADAPAYQQGQNQLYNELNLGRREEYDVLDKRRGRDPEMGGKPRRKNPQEGLYNELQKDKMAEAYSEIGMKGERRRGKGHDGLYQGLSTATKDTYDALHMQALPPR
For the molecule B1, in assay [2], the “IFN gamma release in co-culture with RPMI8226.Luc, mean” value turned out to be 1100 pg/mL and the “IFN gamma release in co-culture with Raji.Luc, mean” value was 796 pg/mL. Also, the “IFN gamma release in co-culture with K562.CD38.Luc (BCMA negative control; UnT 85.65 pg/ml), mean” value in assay [3] stood at 136 pg/mL.
